Data as given in the DeepSol protein solubility set.

Test: soluble on expression in E. coli; label from the status in PepcDB or PDB records

Row | Sequence | soluble on expression in E. coli
1 | SILELAEYTYFPPTLMASLILKNCDFSRKSINWLFKHLDCIENRRLRKEVRKALNADYFFSPRAHEMQCRKGEMGEEIVRKWLDDREIAYCTEAEIRAKGDGKTPDFVLSNPIFIEDHMVSWIESKALFGDDFEHKHYAKKQFREYADIFGEGMVVYWYGFLEDLSSEDEGYLIKDYRFFEGYQEQTDEL | soluble
2 | MSLNTRRLLDLSVTLDNNPYTDPPPLLPKIDYMDHQQGWPEMAAMFPGLRKEDLPGDESWAAERLQITTHSGTHMDAPWHYASTTDGGKPAFGIDELPLEWCLQPGVKLDFRHLPDGHVVTAAQVEAELARIGHELQPLDIVLVNTRAGSLFGQPGYLEAGVGMGREATLYLLERGVRVVGTDAWSWDAPFKFTRERFSETGDASIIWEGHKAGRDIGYGQMEKLANLEQLPADGFLVSCFPYKIRHASAGFVRAVAIFDLEHHHHHH | soluble
3 | GPGSMSLVESQKDMADLLPCNEECGGDYGRYSFGQTDTEVIVKVPLPSDTPTKMINVDVKVSSLTIGMKGQSPLISGDLYKPVKVDECTWCVEDKSVLVVTLVKTNAQYEEWWPCVTTNERQIDMKTFRPPSKHISELDDSARATIAKMMFDQRQKALNLPSSDELRLRELMQRGGTSN | soluble
4 | MAVTTTSESAAEFKEKNVSPVKVEFINAPEKDPGLNVEWQIQGTGYNNEGSGSVIYVRMKNLNDVAIPADAFDDPVLTINGTEASRVEAGTVDLDLPLGPGATTNLQFAFGTGYGSLSDAKLVLGNCIFEGNLSNI | not soluble
5 | MAHHHHHHMSSSVVIVGDSICGGDGDQKLSTSHDEVYLRGFNTFAGNNPSDRALLHEGAGEVVAAISGHIEVTERVISVKGLLPRYQPEIGDVVVGRIVEVSGNKWHVDVNSTQTAIMLLSSVTEPGGILRRRGRGDELGMRQIFDQDDLVAAEVQRISPDGVMSLHTRAADKYGRLSGLGILVSVRPSLVKRAKHQFVELADYSTQLIIGMNGNIWICSVQPSTSDAEETEHATDARQNVARVANCIKALGAAQVQIHPASIEASVAASLDAGLSVFDVSLPKNRDALVARVADMVGMQHRRPTGGGACARTLV | not soluble
6 | MSLDGTVLVADDDRTIRTVLTQALTRAGCKVHATSSLTTLMRWVAEGKGDVVISDVVMPDGNGLEMLPKIAQDRPGLPVIVISAQNTIMTAIQAAEAEAYDYLPKPFDLPDLMKRTARALEQKRRTVSSEPREEGAERPDELPLVGRTPAMQALYRLVAKVMNTDLPVMISGESGTGKSLIARTIHDFSDRRTLPFISVTASDLMDLEGPARVLARVKGGTLLIDEIADIGDELQGRIVRMMDAPGDYVPRFMATSQGDPARAMEAGKLRRDLYYRLCGAPIHVPALRERVDDIPLLTEYFLAKAERDGAPKRWLGAGAAELFRIYSWPGNVRQLENAVRRLSLISRAEEISRTEVEQVLGNQPELEPALGGRGDSEKLSASVARHLQRYFDLHGNVLPPPGLYQRILREVEAPLIEIALEASGGNQAKCADLLGINRNTLRKKITDLDIEVTREGHHHHHH | soluble
7 | MMYIYTYTDPFGKRRYTYSKDLVKLREKEQKLLKDQLDGLDVYAAGNANLNFVFDRYISTKTELRRTTYTNYMYMYDHYVRDSFGKKKIGEIKYSDVLYFYYHLINERKLQVNTLETIHTVLHPTFQLAVRDDIIRNNPSHGVMSEIKKKPGRNHGVRHALTVEQQRAFMNYTSNSPVFNHWAPLFTVLLGTGCRIGEIIGIRWEDIDLEKRLININHSVTYYPRRAETTKCEFAVSLPKTEAGIRTVPMMEPVYNAFMEEYEYQKENGFSTVTLDGMEGFIFTNRFGNLHNPQAVNRTIKRI | not soluble
8 | MNTRQLLSVGIDIGTTTTQVIFSRLELVNRAAVSQVPRYEFIKRDISWQSPVFFTPVDKQGGLKEVELKALILAQYQAAGIAPESVDSGAIIITGESAKTRNARPAVMALSQSLGDFVVASAGPHLESVIAGHGAGAQSLSEQRMCRVLNIDIGGGTSNYALFDAGKVSGTACLNVGGRLLETDAQGRVVYAHQPGQMIIDEVFGSGTDARALAAAQLGQVARRMADLIVEVITGALSPLAQSLMQTGLLPADITPEVITLSGGVGECYRNQPADPFCFSDIGPLLATALHEHPRLREMNVQFPAQTVRATVIGAGAHTLSLSGSTIWLEDVQLPLRNLPVAIPQDDADLVNAWRQALLQLDLDPQTDAYVLALPATLPVRYAALLTVINALTAFVARYPNPHPLLVVAEQDFGKALGMLLRPQLPQLPLAVIDEVVVRAGDYIDIGTPLFGGSVVPVTVKSLAFPS | not soluble
9 | MQGFELEDLTLWLIRDAGEDQMWIDRWAISYPVVQMSEASAGQSIGEWQAGLQTAFERIRGKYVAVVAHGAGAAAFLAWLYQADILTRKKIANIILVPQRPDIFPDDAEHAFQRVRCPCRAALVVPEHGGVPHGWAQKQADLWNARLLVSPHSGSLNGMLGGWQWGMKLMQEMLLA | not soluble
10 | MLKIGPYEFSSRLLLGTGKYPSLDVQKEAVEASGAEILTFAVRRMNIFSPEQPNFLEQLDLSKYKLLPNTAGAKTAEEAVRIARLAKASGLCDMIKVEVIGCDKTLLPDPIETLKAAEMLLEEGFIVLPYTSDDVVLAKRLEELGCHAIMPGASPIGSGQGIINPLNLSFIIEQANVPVIVDAGIGGPADAALAMELGADGVLLNTAVSGAADPVKMAKAMKLAVEAGRLGYEAGRIPKKRYASASSPTEGMSVV | not soluble
11 | SSSGYSSLEEDEDFFFTARTSFFRRAPPGKSRSGQPDVEKEKETHNYLSKEEIKEKVHKYNSAVTDKLKMTLNSNGIYTGFIKVQMELCKPAQPSPEPSSGGCMNTLHISSTNTVGEVIEALLRKFLVTESPTKFALYKRCHREDQVYACKLSDREHPLYLRLVAGPRTDTLSFVLREHEIGEWEAFSLPELQNFLRILDKEEDEQLQSLKRRYTAYRQKLEEALGEVWKPG | soluble
12 | MNNLMPAELAPQINAHFNGKFEVELKYRLADREAFWARLSAKSPEVMLEDNLEHDCYFDSPSASLAAQHKSLCIREMQPSGIRLWIVKGPEKDRCEAVNITDANKAKSMLRTLGYQCVLEIKKRRSVYFLGQFHLTLDRLEGLGDFAELAIMTDDEAMLPVYEAQLVALAAELGLNESQREFLSYRQLQQALQQLEHHHHHH | not soluble
13 | MQFFTSDTHFFHKDLLGDSDFAPRPFASVDEMNQTIIDNWNARVAETDTVYHLGDIALYFTKPAIKSDEAVFNVLSQLNGHLELIKGNHDSRALFKYLAAHNFSDHGQPKFAFHDVGALIKYDHRQYYLTHYPMMLGIVNQIINLHGHIHHYAVPVKENINVGVDTPEQRYLTTSVPFGTPFSPTEIEQMVTGKAQEFREKQLEHHHHHH | not soluble
14 | MGSDKIHHHHHHMTVCVWCQRPLKTSLTLAQFWRWGPVTPPDICVPCQGRLSPISGQHCPQCGRQQTTCQLCQDCQRWDQPLVNRALYCYDAEMKAYMQQYKFQGDYALQRVLQRALATALTQLTYDILVPIPIAQSTWQSRGFNQVTGWLTGQAYYQVLQVIDQDKATPQSAKNRAQRFLLTPQPFTLAPQAKDLCHGQRVLLLDDVYTTGRTLRHAATQINLTGAKAVTSLTLAR | not soluble
15 | MSNIKKYIIDYDWKASIEIEIDHDVMTEEKLHQINNFWSDSEYRLNKHGSVLNAVLIMLAQHALLIAISSDLNAYGVVCEFDWNDGNGQEGWPSMDGSEGIRITDIDTSGIFDSDDMTIKAA | soluble
16 | MGSDKIHHHHHHGDGNITTENIPVSEYDCLELEGGGMVVNYTQSDAPEGLEIKTDRNIFEKYEFNVENHKLKIRPKKEFRKHTNFRPTEFMVTANSRNLKKLAAAGSTHVNINSPLQAEEFEAGLAGSGIIQFHDTASFTNLKIEIAGSGDFVGHKVYCEELNGDMAGSNTIVLGGTVGIAEFSIAGSGTVRAFDCTMDELECKIAGSGDIEAFVVNKIKAEIAGSGSVKYKGDPQDIQKKVMGSGKIEKVE | not soluble
17 | MTQAIKRVGVTDVVLRDAHQSLFATRLRIDDMLPIAQQLDQIGYWSLECWGGATFDSCIRFLGEDPWQRLRLLKQAMPNTPLQMLLRGQNLLGYRHYADDVVDTFVERAVKNGMDVFRVFDAMNDVRNMQQALQAVKKMGAHAQGTLCYTTSPVHNLQTWVDVAQQLAELGVDSIALKDMAGILTPYAAEELVSTLKKQVDVELHLHCHSTAGLADMTLLKAIEAGVDRVDTAISSMSGTYGHPATESLVATLQGTGYDTGLDIAKLEQIAAYFRDVRKKYHAFEGMMKGSDARILVAQVPGGMLTNMESQLKQQNALDKLDLVLEEIPRVREELGFLPLVTPTSQIVGTQAVINVVLGERYKTITKETSGVLKGEYGKTPAPVNTELQARVLAGAEAITCRPADLIAAEMPTLQDRVLQQAKEQHITLAENAIDDVLTIALFDQVGWKFLANRHNLEHHHHHH | soluble
18 | MTNIEILENMLKLQQKLNDETNGLNWENGYTKEGKLISWRRCIYMECAELIDSFTWKHWKNISSLTNWENVRIEIVDIWHFILSLLLEEYRDKNNKDFKAIATEVNAVSVFQDFCKEEEYPNEGDIYGILNDIELIIHKCSGFGFNLGELLSTYFTLAIKCGLNLEILYKTYIGKNVLNIFRQNNGYKDGSYKKTWNGKEDNEVLAQILEQELDFDTIYKKLEECYKKA | soluble
19 | LITFRCRSYANVTMFGDIALEMIKMMGHSGTVPGSISAQDVPDALSKLTSALSAKNAAEENLPTDVDVDEKEEQVEPAVSLGRRAFPLIELLKSAIKEECEVMWD | not soluble
20 | NLKVKGARDVFEYMKGRIPDETKEHLFVLFLSTKNQILRHETITIGTLTASLIHPREIFKAAIRESAHSIILVHNHPSGDVQPSNADKQVTSILKKAGDLLQIELLDHVIVGNNDWFSFRDHALL | soluble
21 | SLTGAVDKLTLIHYNDVYNIDANSKSEPIGGAARFCTAVRSFSHLNPLVLFSGDAFSPSMLSTFTKGEQMIPVLNTVGTHCAVFGNHDFDHGLDILNEWVEKTNFPWLMSNVVDNETGRPLGGGKITHIMHHNEVKVGLIGLVEKEWLDTLPTIDPNEVTYIDFIKAGNQLADELHNQGCDIIIALTHMRTPNDIELAKHSGHIDLILGGHDHVYEILNIDDTHVIKSGTDFRQFSKIGISLNRNQNGKININVEKVDVNSTKYSEDSELKNELKKYSETIESKMDEVLGTFAVELDGRFSAIRTSETNLGNWICDVALAATGADCVIINSGTFRSDQIHPAGPFTMRDLINIIPMQDPLIVLEVTGKILHQALENSVSTYPKLEGRFPQIAGMSFVFDPTKKAGERVEPKLIRLGDEWLNLEQTYTLCVKSYIYGGCDGYNMFKECRVLMDDDAAPELGLAIQNHFKAIDVRLGK | soluble
22 | MKARQQKYCDKIANFWCHPTGKIIMSLAGKKIVLGVSGGIAAYKTPELVRRLRDRGADVRVAMTEAAKAFITPLSLQAVSGYPVSDSLLDPAAEAAMGHIELGKWADLVILAPATADLIARVAAGMANDLVSTICLATPAPVAVLPAMNQQMYRAAATQHNLEVLASRGLLIWGPDSGSQACGDIGPGRMLDPLTIVDMAVAHFSPVNDLKHLNIMITAGPTREPLDPVRYISNHSSGKMGFAIAAAAARRGANVTLVSGPVSLPTPPFVKRVDVMTALEMEAAVNASVQQQNIFIGCAAVADYRAATVAPEKIKKQATQGDELTIKMVKNPDIVAGVAALKDHRPYVVGFAAETNNVEEYARQKRIRKNLDLICANDVSQPTQGFNSDNNALHLFWQDGDKVLPLERKELLGQLLLDEIVTRYDEKNRR | not soluble
23 | MSLIEVDLLNNDNLKKKTSGFTILSGDSTDGHGGYGAGVLSLDNVTPVFVDPEEERAFVDLGALHARSEVEKRIKFLPNKEEVPNGKLYWLVWVTIDSKKEGPYYAGVAGCEMTVDREIRRGYKSMPEHVNKMDKSIKGKIVVDDMDERSKRILGEYLKSFNEDMWKRSEPELREKLLGEKEGHHHHHH | soluble
